{"source": "paper PMC5011719", "about": "“The amyloid fold of Gad m 1 epitopes governs IgE binding” (Scientific Reports, 2016)", "proteins": {"B1": {"name": "rGad m 1 wt (recombinant Gad m 1, Atlantic cod beta-parvalbumin) (natural protein, UniProt A5I874 1-109, looked up)", "chain": "MAFAGILNDADITAALAACKAEGSFDHKAFFTKVGLAAKSSADIKKVFEIIDQDKSDFVEEDELKLFLQNFSAGARALSDAETKVFLKAGDSDGDGKIGVDEFGAMIKA", "notes": "Gad m 1, Atlantic cod beta-parvalbumin; synthetic ORF in pET15b; Monomer in Ca2+, forms amyloids in EDTA; also called rGad wt; not shown: 6XHis, N-terminal, kept"}}, "target": "the molecule itself", "experiment": "AFM + dynamic light scattering; fibril dimensions from AFM images (2 nm height, 15 nm diameter, average length 350 nm) and the RH of the monomer from DLS; geometrical calculation", "data": [{"protein": "B1", "values": [{"measurement": "stoichiometry N", "value": 370}]}]}
